Results reported in patent publication US20160200782A1 (MOERAE MATRIX, published 2016).

T1: EphA2(h) (human, UniProt P29317 559-976, limits assumed)
T1 sequence (looked up): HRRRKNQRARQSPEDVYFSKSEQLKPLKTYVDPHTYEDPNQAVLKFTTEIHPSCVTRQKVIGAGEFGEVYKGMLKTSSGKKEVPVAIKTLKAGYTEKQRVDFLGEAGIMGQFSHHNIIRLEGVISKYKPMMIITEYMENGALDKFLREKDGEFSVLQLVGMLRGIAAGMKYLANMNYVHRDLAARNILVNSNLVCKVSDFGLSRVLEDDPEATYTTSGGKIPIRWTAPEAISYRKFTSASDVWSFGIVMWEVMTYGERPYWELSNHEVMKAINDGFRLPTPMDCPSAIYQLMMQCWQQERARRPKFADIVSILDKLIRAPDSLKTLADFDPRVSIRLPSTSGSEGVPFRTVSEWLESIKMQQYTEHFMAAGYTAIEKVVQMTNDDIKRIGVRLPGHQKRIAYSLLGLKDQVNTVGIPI

T2: PRAK(h) (human, UniProt Q8IW41 1-473, limits assumed)
T2 sequence (looked up): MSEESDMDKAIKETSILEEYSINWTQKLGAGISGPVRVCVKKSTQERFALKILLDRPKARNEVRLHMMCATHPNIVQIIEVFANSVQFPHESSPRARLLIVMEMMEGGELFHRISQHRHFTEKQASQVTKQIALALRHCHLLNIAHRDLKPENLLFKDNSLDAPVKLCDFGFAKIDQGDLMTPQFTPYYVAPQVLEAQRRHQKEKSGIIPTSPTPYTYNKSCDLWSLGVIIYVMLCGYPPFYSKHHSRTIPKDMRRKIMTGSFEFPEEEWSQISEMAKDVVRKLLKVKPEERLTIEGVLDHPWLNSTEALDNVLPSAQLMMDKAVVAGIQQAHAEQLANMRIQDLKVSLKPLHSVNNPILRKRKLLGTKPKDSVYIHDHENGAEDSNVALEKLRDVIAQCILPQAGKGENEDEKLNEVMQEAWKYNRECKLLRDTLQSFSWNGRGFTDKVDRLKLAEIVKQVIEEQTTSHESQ

T3: CaMKIV(h) (human, UniProt Q16566 1-473, limits assumed)
T3 sequence (looked up): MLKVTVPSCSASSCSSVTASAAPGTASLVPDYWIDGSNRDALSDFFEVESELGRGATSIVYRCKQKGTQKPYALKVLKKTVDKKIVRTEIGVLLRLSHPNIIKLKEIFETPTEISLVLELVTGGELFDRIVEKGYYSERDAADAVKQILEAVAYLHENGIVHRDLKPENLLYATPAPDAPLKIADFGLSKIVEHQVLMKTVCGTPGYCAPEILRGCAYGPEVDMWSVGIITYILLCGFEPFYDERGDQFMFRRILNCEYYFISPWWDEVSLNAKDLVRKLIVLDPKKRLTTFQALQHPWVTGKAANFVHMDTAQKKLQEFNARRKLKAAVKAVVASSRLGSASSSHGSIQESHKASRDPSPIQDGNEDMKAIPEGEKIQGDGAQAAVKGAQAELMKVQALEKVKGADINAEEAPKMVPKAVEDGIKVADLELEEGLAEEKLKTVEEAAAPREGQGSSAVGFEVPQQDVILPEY

T4: Ron(h) (human, UniProt Q04912 983-1400, limits assumed)
T4 sequence (looked up): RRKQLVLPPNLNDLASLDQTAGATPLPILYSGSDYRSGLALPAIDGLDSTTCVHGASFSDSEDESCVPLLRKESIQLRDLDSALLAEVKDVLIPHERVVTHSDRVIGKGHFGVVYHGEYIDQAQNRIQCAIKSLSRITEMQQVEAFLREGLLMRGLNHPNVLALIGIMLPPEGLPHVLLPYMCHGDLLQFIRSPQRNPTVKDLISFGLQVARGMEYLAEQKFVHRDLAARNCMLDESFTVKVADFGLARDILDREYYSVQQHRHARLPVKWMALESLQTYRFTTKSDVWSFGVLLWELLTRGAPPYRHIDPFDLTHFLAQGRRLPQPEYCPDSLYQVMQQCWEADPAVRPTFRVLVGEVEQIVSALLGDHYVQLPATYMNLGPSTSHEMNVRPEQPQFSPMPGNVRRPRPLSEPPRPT

T5: Ret(h) (human, UniProt P07949 658-1114, limits assumed)
T5 sequence (looked up): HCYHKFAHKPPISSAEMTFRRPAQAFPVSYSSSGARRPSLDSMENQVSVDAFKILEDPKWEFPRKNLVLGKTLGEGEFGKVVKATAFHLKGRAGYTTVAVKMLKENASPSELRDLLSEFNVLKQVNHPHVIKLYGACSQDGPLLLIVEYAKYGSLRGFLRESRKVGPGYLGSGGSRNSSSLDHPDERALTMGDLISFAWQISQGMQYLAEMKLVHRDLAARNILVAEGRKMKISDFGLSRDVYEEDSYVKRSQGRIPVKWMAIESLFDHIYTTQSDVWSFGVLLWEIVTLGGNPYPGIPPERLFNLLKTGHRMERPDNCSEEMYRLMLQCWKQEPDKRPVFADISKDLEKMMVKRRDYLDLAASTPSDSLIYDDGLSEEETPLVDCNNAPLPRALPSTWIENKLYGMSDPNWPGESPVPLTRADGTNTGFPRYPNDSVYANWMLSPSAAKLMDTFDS


Key:
Assay in all cases: cell-based or functional assay
MLK1(h) = MLK1(h) (human, UniProt P80192 132-413, limits assumed)
EphA2(h) = target: T1, EphA2(h)
PAK4(h) = PAK4(h) (human, UniProt O96013 1-591, limits assumed)
PAK2(h) = PAK2(h) (human, UniProt Q13177 1-524, limits assumed)
PRAK(h) = target: T2, PRAK(h)
MSK1(h) = MSK1(h) (human, UniProt O75582 1-802, limits assumed)
CaMKIV(h) = target: T3, CaMKIV(h)
Ron(h) = target: T4, Ron(h)
BRK(h) = BRK(h) (human, UniProt Q13882 1-451, limits assumed)
Ret(h) = target: T5, Ret(h)
ALK(h) = ALK(h) (human, UniProt Q9UM73 1058-1620, limits assumed)
ALK(h), sequence (Q9UM73 1058-1620 limits assumed): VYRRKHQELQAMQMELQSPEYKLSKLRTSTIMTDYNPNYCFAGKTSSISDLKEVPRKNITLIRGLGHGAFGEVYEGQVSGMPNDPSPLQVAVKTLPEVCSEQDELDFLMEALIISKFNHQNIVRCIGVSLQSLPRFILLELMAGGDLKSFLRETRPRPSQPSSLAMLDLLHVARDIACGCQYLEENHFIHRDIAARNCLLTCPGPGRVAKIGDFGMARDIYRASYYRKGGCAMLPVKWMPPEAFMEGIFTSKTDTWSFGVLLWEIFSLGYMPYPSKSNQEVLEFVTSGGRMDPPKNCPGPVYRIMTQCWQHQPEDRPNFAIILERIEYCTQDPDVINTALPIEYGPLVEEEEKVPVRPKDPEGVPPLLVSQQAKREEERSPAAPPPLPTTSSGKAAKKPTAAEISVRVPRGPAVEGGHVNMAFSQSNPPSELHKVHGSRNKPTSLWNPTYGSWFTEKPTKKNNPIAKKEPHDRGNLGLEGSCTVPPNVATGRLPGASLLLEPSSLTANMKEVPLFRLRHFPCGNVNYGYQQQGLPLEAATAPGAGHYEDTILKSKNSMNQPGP

PAK2(h), sequence (Q13177 whole entry): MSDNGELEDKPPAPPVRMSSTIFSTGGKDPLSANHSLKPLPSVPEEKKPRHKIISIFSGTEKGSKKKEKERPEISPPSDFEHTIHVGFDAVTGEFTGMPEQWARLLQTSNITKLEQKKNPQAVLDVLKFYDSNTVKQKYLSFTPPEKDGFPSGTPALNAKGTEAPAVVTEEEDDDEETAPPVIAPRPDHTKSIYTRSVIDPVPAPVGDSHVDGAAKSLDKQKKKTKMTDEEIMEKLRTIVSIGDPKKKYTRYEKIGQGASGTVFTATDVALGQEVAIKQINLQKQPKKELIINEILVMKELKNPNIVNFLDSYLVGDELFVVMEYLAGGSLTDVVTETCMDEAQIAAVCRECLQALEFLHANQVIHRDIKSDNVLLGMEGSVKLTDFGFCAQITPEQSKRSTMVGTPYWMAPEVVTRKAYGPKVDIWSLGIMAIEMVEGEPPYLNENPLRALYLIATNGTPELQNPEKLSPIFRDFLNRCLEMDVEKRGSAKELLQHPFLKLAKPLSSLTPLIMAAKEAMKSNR
MLK1(h), sequence (P80192 132-413 limits assumed): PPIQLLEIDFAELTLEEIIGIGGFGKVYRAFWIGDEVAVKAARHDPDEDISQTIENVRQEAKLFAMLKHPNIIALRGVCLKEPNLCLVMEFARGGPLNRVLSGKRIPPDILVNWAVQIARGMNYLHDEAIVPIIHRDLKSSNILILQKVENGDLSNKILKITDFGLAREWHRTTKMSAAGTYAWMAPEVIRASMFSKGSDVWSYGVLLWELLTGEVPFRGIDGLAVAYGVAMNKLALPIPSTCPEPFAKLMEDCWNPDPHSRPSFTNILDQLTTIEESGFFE
PAK4(h), sequence (O96013 whole entry): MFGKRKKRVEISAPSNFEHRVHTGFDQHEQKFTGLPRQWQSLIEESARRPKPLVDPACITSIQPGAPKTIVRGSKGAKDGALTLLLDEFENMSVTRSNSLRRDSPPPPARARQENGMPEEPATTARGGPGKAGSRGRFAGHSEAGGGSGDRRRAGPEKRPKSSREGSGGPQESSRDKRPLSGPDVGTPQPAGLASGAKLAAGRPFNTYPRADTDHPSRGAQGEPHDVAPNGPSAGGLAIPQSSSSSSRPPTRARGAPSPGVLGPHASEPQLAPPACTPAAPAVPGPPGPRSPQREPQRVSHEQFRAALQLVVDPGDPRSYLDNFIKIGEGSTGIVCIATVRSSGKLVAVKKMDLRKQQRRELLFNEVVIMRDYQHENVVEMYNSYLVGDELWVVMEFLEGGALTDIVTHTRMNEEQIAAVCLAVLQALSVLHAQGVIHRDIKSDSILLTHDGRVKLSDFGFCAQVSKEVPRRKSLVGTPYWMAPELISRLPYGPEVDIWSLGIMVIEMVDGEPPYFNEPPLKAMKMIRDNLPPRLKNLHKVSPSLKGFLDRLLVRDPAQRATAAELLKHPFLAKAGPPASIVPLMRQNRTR
MSK1(h), sequence (O75582 whole entry): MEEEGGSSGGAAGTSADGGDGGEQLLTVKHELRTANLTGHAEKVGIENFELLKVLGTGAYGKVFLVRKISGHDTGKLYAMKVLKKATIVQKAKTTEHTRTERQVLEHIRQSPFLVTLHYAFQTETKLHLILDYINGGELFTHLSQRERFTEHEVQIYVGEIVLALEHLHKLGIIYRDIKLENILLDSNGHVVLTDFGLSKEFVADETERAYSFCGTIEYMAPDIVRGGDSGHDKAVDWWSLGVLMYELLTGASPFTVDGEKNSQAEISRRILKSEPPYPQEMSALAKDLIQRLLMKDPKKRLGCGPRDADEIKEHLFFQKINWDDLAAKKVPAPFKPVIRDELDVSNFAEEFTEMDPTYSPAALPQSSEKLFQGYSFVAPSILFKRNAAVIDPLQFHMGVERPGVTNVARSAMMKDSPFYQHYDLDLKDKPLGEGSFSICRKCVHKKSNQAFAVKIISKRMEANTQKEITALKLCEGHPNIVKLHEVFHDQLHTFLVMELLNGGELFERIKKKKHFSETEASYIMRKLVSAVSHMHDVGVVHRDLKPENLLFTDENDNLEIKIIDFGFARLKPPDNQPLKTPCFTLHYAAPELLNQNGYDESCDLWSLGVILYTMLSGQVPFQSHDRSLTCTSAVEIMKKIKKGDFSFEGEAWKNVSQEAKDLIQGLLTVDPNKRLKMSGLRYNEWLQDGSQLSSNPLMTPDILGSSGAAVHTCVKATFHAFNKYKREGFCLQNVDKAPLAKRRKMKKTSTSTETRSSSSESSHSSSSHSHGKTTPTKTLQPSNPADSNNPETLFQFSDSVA

% activity (MLK1(h)) [%]	% activity (EphA2(h)) [%]	% activity (PAK4(h)) [%]	% activity (PAK2(h)) [%]	% activity (PRAK(h)) [%]	% activity (MSK1(h)) [%]	% activity (CaMKIV(h)) [%]	% activity (Ron(h)) [%]	% activity (BRK(h)) [%]	% activity (Ret(h)) [%]	% activity (ALK(h)) [%]	Binder
33	17	89	59	118	28	18	79	18	145	16	KAFAKLAARLYRKALARQLGVAA [MMI-0400]
40	31	94	65	128	32	17	93	35	140	19	FAKLAARLYRKALARQLGVAA [MMI-0300]
